Experiments:
antibody PGT128 (human) = assay: SPR
antibody PGT135 (human) = assay: SPR
Chain of antibody PGT135 (human) (heavy, as listed by the source, chain 1 of 2): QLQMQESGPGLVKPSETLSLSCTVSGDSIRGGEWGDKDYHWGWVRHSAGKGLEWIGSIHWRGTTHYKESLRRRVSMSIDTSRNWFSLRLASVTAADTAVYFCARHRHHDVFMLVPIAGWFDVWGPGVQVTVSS
Chain of antibody PGT135 (human) (light, as listed by the source, chain 2 of 2): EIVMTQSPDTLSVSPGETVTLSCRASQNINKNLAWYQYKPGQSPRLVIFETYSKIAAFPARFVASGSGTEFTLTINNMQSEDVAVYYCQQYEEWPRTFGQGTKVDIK

Chain of antibody PGT128 (human) (heavy, as listed by the source, chain 1 of 2): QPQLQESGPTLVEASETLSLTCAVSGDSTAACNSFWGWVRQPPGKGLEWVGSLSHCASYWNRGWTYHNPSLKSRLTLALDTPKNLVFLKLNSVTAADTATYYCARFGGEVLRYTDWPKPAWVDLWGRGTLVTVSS
Chain of antibody PGT128 (human) (light, as listed by the source, chain 2 of 2): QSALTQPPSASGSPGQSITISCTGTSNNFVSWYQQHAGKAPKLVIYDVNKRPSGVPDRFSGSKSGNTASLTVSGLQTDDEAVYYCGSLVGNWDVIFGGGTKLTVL

YU2 gp120 (from UniProt P35961 32-498) (natural protein)
Kd (antibody PGT128 (human)): 11 nM
Kd (antibody PGT135 (human)): 18 nM

Source: article PMC4084637
